Patent publication US20260092267

Test system: H3K4 histone substrate (histone H3)

## SETD7-dCas9 protein (purified from pET-SETD7-dCas9-NLS-6×His)
  in vitro H3K4 methylation activity: the SETD7-dCas9 protein was confirmed to have H3K4 methylation activity with H3K4 histone substrate through in vitro analysis
